Holding throughout (experiment): HuProt Human Proteome Microarray, off-target human proteins
Common to all, as to type: binding
What all share (set-up): key to Z Score: Z = (F635 − mean F635 of all spots) / SD; average of duplicate spots; key to S Score: difference between this protein's Z score and the next-ranked protein's

In assay [1] the target is T1, human proteins on HuProt Human Proteome Microarray (Homo sapiens, UniProt Q96F63).
T1 construct: purchased CDI Labs (HuProt); host or cells: yeast S. cerevisiae
T1 sequence (Q96F63 1-343): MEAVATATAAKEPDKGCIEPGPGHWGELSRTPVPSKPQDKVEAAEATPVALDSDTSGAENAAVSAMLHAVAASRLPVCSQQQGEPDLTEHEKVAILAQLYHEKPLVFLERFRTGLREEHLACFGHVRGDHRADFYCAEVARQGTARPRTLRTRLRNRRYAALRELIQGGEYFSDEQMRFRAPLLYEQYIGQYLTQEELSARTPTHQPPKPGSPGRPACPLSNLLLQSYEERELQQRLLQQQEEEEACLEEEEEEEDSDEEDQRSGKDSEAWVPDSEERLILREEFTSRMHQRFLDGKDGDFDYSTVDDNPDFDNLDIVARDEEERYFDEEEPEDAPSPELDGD
As to conditions: Protein: CCDC97. From the text: (§1) The HuProt™ Human Proteome Microarray provides the largest number of unique, full-length, individually purified human proteins on a single microscope slide. It provides >21,000 unique human proteins, isoform variants, and protein fragments—covering 16,794 unique genes. This includes 15,889 of the 19,613 canonical human proteins described in the Human Protein Atlas, with broad coverage across protein subclasses. This allows thousands of interactions to be profiled in a high-throughput manner. The full-length recombinant proteins are expressed in the yeast S. cerevisiae, purified, and printed on glass slides in duplicate along with a set of control proteins (GST, BSA, histones, IgG, etc.). The full list of the different proteins included in the HuProt™ Human Proteome Microarray as used in this Example is provided as “List B” in the Research Disclosures publication (ISSN 0374-4353, Questel Ireland Ltd) with database numbers 707018, 707019 and 707020, each entitled “Large scale protein arrange target protein identities” and each digitally published on 27 Jan. 2023, the contents of each of which are incorporated herein by reference in their entirety, fo the purposes of the disclosure of the proteins defined by “List B”. “List B” begins in Research Disclosures publication 707018, is continued in Research Disclosures publication 707019, and concludes Research Disclosures publications 707020, and so the three publications are to be read consecutively as a single disclosure of the “List B” proteins. The HuProt™ microarray is not restricted to a particular type of surface coating, although the default is glass coated with ultrathin nitrocellulose film for the non-covalent, yet irreversible, capture of active proteins to the surface.
(§2) Samples of humanised 7B1F3 and mouse 7B1F3 antibodies were analysed for binding specificities on HuProt™ human proteome arrays. A peptide with the sequence TDVLNQSKPVTL (“Peptide 3”) was added to the arrays at 0.1 mg/ml as a control.
(§3) After blocking, the arrays were probed with the antibody samples (0.1 μg/ml) at room temperature for 1 hour. Then the arrays were washed with TBST for 10 min×3 and probed with Alexa647-anti-human IgG Fc or Alexa647-anti-mouse IgG secondary antibodies under conditions optimized by CDI Labs for signal detection.
(§4) • Non-specific hits that directly bind to the secondary antibodies were eliminated from the analysis of the samples. • CDI software was used to quantify the specificity of each individual sample to specific proteins on the array based on Z Scores. • Z score is the average Z score of the duplicate spots of a given protein (each protein is printed in duplicate on a HuProt™ array). The Z score of each spot on a given array is calculated according to the algorithm below:
(§5) Z=[F635−F635(avg)]/F635(std) • F635(avg) and F635(std) are the average and standard deviation of the F635 values of all spots on the array, respectively. • S score is the difference of the Z Scores of a given protein and the one ranked next to it. If the S score of the top hit is >3, the antibody is considered to be highly specific for the top hit. • F635 is the average foreground signal intensity of 2 replicate spots of a given protein in the detection channel (635 nm). • B635 is the average background signal intensity of 2 replicate spots of a given protein in the detection channel (635 nm).

Assay [2] concerns human proteins on HuProt Human Proteome Microarray.
Description: as §1, §2, §3, §4, §5

Assay [3] concerns the target T2, human proteins on HuProt Human Proteome Microarray (Homo sapiens, UniProt Q9UK22).
T2 construct: purchased CDI Labs (HuProt); host or cells: yeast S. cerevisiae
T2 sequence (Q9UK22 1-296): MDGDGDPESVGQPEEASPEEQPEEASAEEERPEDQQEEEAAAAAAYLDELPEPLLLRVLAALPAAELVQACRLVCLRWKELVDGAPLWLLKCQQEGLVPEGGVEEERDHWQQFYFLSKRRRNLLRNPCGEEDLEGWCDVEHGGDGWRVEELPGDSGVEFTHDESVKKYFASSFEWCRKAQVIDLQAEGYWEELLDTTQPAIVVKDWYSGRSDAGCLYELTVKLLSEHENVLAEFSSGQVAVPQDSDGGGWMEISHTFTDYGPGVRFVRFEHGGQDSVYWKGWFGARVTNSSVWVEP
The following applies: Protein: FBXO2.
Description: as §1, §2, §3, §4, §5

B1: 7B1F3: mouse IgG1 kappa antibody against US28 ECD1 Peptide-N; VH SEQ ID NO: 211, VL SEQ ID NO: 213 (antibody, V domains shown)
VH: EVQLQQSGAELAKPGASVKMSCKASGYTFTNYWMHWVKQRPGQGLEWIGYVNPRTGYTEYNQKFKDKATLTADKSSRTAYMQLSSLTSEDSAVYSCARILNGTGFAYWGQGTLVTVSA
VL: DIVLTQSPSSLTVSVGEKFTMSCKSSQSLLYSSNQKNYLAWYQQKPGQSPKLLIYWASTRESGVPDRFTGSGSGTDFTLAISSVKPEDLAIYYCQQYYSFPLTFGAGTKLEIK
modifications: Mature form of VH sequence of 7B1F3, without the leader sequence; Mature form of VL sequence of 7B1F3, without the leader sequence
As for B1, the F635 was found to be 2080 in assay [1]; 10020.5 in assay [2] (Protein: AGAP2); 3312 in assay [2] (Protein: DNAJB2); 2701.5 in assay [2] (Protein: EXD2); 2264 in assay [2] (Protein: SYNCRIP); 3231 in assay [2] (Protein: TRIM33). For the same molecule, in assay [3], the F635 is on record as 4683. Also, the “Z Score” value in assay [1] is 5.922; in assay [2] (Protein: AGAP2), 28.997; in assay [2] (Protein: DNAJB2), 9.502; in assay [2] (Protein: EXD2) it was 7.728; in assay [2] (Protein: SYNCRIP), 6.457; in assay [2] (Protein: TRIM33) it was 9.267. Moreover, in assay [3], the “Z Score” value amounted to 13.486. Besides, the “S Score” value in assay [2] (Protein: AGAP2) is 15.511; in assay [2] (Protein: BYSL) it was 0.378; in assay [2] (Protein: CCDC97), 0.353; in assay [2] (Protein: DNAJB2), 0.235; in assay [2] (Protein: EXD2), 1.271; in assay [2] (Protein: FBXO2) it was 2.911. Besides, the “S Score” value in assay [2] (Protein: LASP1) is 1.073; in assay [2] (Protein: SYNCRIP) it was 0.157; in assay [2] (Protein: TRIM33) it was 1.539.

Values taken from patent US20250296984A1, “THERAPEUTIC AND DIAGNOSTIC AGENTS AND USES THEREOF” (priority 2022, published 2025).
